Laboratory results from patent US20260347439 (published 2026).
Where two headings read alike, the source gives them in different places.

B1: F6-10 (antibody, V domains shown)
VH: DALLLQSGGGLMQPGGSLRLSCAASEFTFNIHAMTWVRQSPGKGLEWVSGISSTGEGTYYTDSVKGRFTISRDNSKSTLYLQMNSLRAEDTATYFCARYSFRYGELRGTFDIWGQGVLVSVSS
VL: DIQMTQTPSTLSASVGDRVIITCRASQSVGDSVAWFQQKPGRAPKLLIYDTTNLERGVPSRFSGSFSGTAFTLTITRLQPDDFATYYCQQYDESWTFGQGTKVEVK
B2: F6-113 (antibody, V domains shown)
VH: QVQLQQWGAGLLKPSETLSLTCAVDGASVSDDDWTWIRQSPGKGLEWIGQIDQTGSFNYNPSLRSRVTISPDTSKNHFSLSLTSVTAADTALYYCARGGLVVTDVGQGWDAFDVWGQGTMVTVSS
VL: DIQLTQSPSSVSASVGDRITITCRASQDIDNWLAWYQQKPGEAPKLLIYAASTLQSGVPSRFSGSGAGTEFTLTITSLQPEDFAGYFCQQGDSFPLTFGGGTKVDIK
B3: MEDI8897 (antibody, V domains shown)
VH: QVQLVQSGAEVKKPGSSVMVSCQASGGLLEDYIINWVRQAPGQGPEWMGGIIPVLGTVHYGPKFQGRVTITADESTDTAYMELSSLRSEDTAMYYCATETALVVSETYLPHYFDNWGQGTLVTVSS
VL: DIQMTQSPSSLSAAVGDRVTITCQASQDIVNYLNWYQQKPGKAPKLLIYVASNLETGVPSRFSGSGSGTDFSLTISSLQPEDVATYYCQQYDNLPLTFGGGTKVEIKR
B4: F6-125 (antibody, V domains shown)
VH: QLQLVQSGTEVKKPGASVKVSCKASGYTFSDNAINWVRQAPGQGLEWLGWITANNGNTNYAQKIQGRVTMTTDTSTSTVYMELRSLGSDDTAVYYCAREVVNYGLGSLHFDYWGQGTLVTVSS
VL: SYELTQPPSVSVSPGQTVSISCSGDKLGNDYASWYQQKPGQSPLLVIYEDAKRPSGIPERFSGSNSGNTATLTISGTQAMDDADYYCQAWDGTTVIFGGGTKLTVL
B5: F6-18 (antibody, V domains shown)
VH: EEQLVESGGGLVRPGGSLRLSCVASGFSVSDYGMHWVRQAPGRGLEYVSAIRSHGDGTYYVNSVKGRFIISRDNSKNTLYLQMGSLSAEDMAVYYCARDRVWAHDYDDTAWLDAFDLWGQGTTVIVSS
VL: DIQMTQSPSTLSASVGDKVTITCRASQSVGSLLAWYQQKPGKAPKLLIYDASNLQRGVPSRFSGSGSGTEFTLTISSLQPDDFATYYCQQYKSHSPPFGQGTKLEIK

What was measured:
[1] = biological target: T1, RSV A2 pre-F (Respiratory syncytial virus A2); experiment: BLI
[2] = biological target: T1, RSV A2 pre-F; experiment: ELISA
[3] = biological target: T1, RSV A2 pre-F; experiment: ELISA; remark: listed apart in the source
[4] = biological target: T1, RSV A2 pre-F; experiment: BLI; remark: listed apart in the source

| Binder | Kd [1] [nM] | EC50 [2] [µg/mL] | EC50 [3] [µg/mL] | Kd [4] [nM] |
| --- | --- | --- | --- | --- |
| B1 | 0.994 | 0.0307 | – | – |
| B2 | < 0.001 | 0.0133 | – | – |
| B3 | 0.379 | 0.0313 | 0.0146 | 0.122 |
| B4 | < 0.001 | 0.0144 | – | – |
| B5 | – | – | 0.016 | 0.0805 |
